Data published in paper PMC12818389, “The Functional Epididymal Amyloid Cystatin‐Related Epididymal Spermatogenic (CRES) is a Component of the Mammalian Brain Extracellular Matrix” (Journal of Neuroscience Research, 2026).

Target: the molecule itself
Assay: SDS-PAGE and Western blot of SDS-resistant high molecular weight forms; 5 ug recombinant CRES monomer alone, 50 mM sodium phosphate pH 8, room temperature 3 h with shaking and silicon beads, no ThT; 25,000 x g pellet in Laemmli buffer, Western blot for CRES

B1: Tag-less full-length mouse CRES C48A protein (recombinant) (natural protein, UniProt P32766 20-142, looked up)
chain: VGVDQSKNEVKAQNYFGSINISNANVKQAVWFAMKEYNKESEDKYVFLVDKILHAKLQITDRMEYQIDVQISRSNCKKPLNNTENCIPQKKPELEKKMSCSFLVGALPWNGEFNLLSKECKDV
notes: Cystatin-related epididymal spermatogenic protein (CRES, Cst8), mouse, called tag-less and full-length; C48A introduced to prevent inappropriate disulfide bond formation; a recombinant form without the signal peptide is possible (surmise); also called CRES monomer; recombinant CRES protein
B1: binds.
